# In patent publication US20100256148A1, “USE OF CFMS INHIBITOR FOR TREATING OR PREVENTING BONE CANCER AND THE BONE LOSS AND BONE PAIN ASSOCIATED WITH BONE CANCER” (priority 2007, published 2010):
# T1: CSF-1R (Mus musculus, UniProt P09581)
# T1 construct: from tissue; host or cells: mouse spleen, in vivo
# T1 sequence (P09581 20-977): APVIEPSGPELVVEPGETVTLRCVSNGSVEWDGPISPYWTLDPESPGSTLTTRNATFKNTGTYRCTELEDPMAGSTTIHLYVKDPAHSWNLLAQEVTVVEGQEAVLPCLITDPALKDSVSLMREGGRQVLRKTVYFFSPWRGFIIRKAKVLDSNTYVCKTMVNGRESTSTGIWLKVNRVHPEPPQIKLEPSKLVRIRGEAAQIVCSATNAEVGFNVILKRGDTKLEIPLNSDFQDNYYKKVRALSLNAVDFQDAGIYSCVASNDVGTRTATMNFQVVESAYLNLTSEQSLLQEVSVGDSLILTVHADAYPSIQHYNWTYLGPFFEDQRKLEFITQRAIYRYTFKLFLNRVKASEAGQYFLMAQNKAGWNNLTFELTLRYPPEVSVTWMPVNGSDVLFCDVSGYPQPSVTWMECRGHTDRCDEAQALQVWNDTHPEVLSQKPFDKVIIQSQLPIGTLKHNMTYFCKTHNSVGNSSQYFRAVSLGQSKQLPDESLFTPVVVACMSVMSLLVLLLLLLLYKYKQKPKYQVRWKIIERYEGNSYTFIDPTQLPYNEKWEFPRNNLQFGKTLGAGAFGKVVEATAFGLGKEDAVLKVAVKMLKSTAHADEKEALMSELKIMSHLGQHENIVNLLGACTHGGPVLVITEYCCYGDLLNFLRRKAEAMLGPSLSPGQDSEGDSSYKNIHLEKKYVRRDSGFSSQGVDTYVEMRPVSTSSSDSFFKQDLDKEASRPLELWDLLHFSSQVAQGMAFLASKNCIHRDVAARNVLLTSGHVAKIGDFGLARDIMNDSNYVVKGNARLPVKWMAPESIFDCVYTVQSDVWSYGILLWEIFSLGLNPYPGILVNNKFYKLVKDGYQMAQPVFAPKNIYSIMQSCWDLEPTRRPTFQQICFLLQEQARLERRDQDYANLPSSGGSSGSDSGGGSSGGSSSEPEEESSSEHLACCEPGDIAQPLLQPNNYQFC
# B1: CSF-1: recombinant mouse CSF-1 (Cell Biosciences Inc), given via the tail vein as challenge (protein, UniProt P07141 33-552, looked up)
# Macrophage colony-stimulating …: KEVSEHCSHMIGNGHLKVLQQLIDSQMETSCQIAFEFVDQEQLDDPVCYLKKAFFLVQDIIDETMRFKDNTPNANATERLQELSNNLNSCFTKDYEEQNKACVRTFHETPLQLLEKIKNFFNETKNLLEKDWNIFTKNCNNSFAKCSSRDVVTKPDCNCLYPKATPSSDPASASPHQPPAPSMAPLAGLAWDDSQRTEGSSLLPSELPLRIEDPGSAKQRPPRSTCQTLESTEQPNHGDRLTEDSQPHPSAGGPVPGVEDILESSLGTNWVLEEASGEASEGFLTQEAKFSPSTPVGGSIQAETDRPRALSASPFPKSTEDQKPVDITDRPLTEVNPMRPIGQTQNNTPEKTDGTSTLREDHQEPGSPHIATPNPQRVSNSATPVAQLLLPKSHSWGIVLPLGELEGKRSTRDRRSPAELEGGSASEGAARPVARFNSIPLTDTGHVEQHEGSSDPQIPESVFHLLVPGIILVLLTVGGLLFYKWKWRSHRDPQTLDSSVGRPEDSSLTQDEDRQVELPV
# Target: T1, CSF-1R
# Experiment: In vivo pharmacodynamic model: CSF-1-induced splenic c-fos mRNA
# Experimental: Eight hours later, mice were administered saline or 0.8 μg recombinant mouse CSF-1 (Cell Biosciences Inc, Norwood, Mass.) via the tail vein. Fifteen minutes after the tail vein injection, mice were sacrificed and spleens were isolated and snap frozen on dry ice. The frozen tissue was homogenized in 1 ml of Trizol (Invitrogen) per 50 mg of tissue, and RNA was purified according to the Trizol instructions and treated with 6.8 Kunitz units of RNase-free DNase (Qiagen, Valencia, Calif.) to degrade contaminating genomic DNA. The RNA was purified further using RNeasy columns (Qiagen). RT-PCR was performed in 25 μL reaction volumes using Reverse Transciptase qPCR Master Mix (Eurogentec) and approximately 50 ng RNA. Applied Biosystems, Inc., (Foster City, Calif.) was the source for the primer probe set for mouse c-fos mRNA (part# Mm00487425) and 18S rRNA (part# 4333760F). Amplification and detection were performed using the ABI Prism 7000 Sequence Detector system. Standard curves were created for c-fos mRNA and for 18s rRNA using RNA isolated from a vehicle-treated, CSF-1-induced mouse and used to calculate relative expression levels in all other samples. c-fos mRNA values were normalized to 18S rRNA content. Averaged, normalized c-fos content in the saline (no CSF-1) group was assigned a value of one and all other groups were expressed as “fold-induced”.
molecule,measurement,setting,value
B1,ED50 of splenic c-fos mRNA induction,intravenous recombinant CSF-1,ca. 0.8 μg/mouse
same,induction of splenic c-fos mRNA,"intravenous recombinant CSF-1, within fifteen minutes",10- to 50 fold
